From patent US10654896B2, “FoxP3-binding peptides and uses thereof” (FUNDACIÓN PARA LA INVESTIGACIÓN MÉDICA APLICADA, priority 2016, dated 2020)
Where a SMILES comes first, the peptide text is derived from it. Where no end group is shown, it is not given here. [ ]: non-standard residue; d: D form.

How the values were obtained:
[1] = molecular target: T1, human FOXP3 (FOXP3-6His) (Homo sapiens, UniProt Q9BZS1); assay: Peptide binding to FOXP3 by surface plasmon resonance (SPR); details: peptides 1-20 μM; ratio to p60 (SEQ ID NO: 1)
T1 construct: 6xHis (C); made in house; host or cells: E. coli BL21 (DE3)
T1 sequence (Q9BZS1 1-431): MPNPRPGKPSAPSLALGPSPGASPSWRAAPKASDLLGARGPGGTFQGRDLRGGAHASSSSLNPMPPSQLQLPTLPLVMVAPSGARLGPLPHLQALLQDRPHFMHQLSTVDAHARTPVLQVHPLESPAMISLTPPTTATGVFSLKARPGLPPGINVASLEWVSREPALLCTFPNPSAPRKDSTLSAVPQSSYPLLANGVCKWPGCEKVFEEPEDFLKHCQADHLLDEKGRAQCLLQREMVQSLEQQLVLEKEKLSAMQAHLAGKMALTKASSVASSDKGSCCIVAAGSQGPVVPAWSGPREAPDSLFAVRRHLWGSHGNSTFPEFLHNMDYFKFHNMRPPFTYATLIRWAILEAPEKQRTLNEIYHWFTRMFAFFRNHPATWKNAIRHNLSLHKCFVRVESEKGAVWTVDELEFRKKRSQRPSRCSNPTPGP
Text: (§1) Plasmid pET20b FOXP3-His was generated to produce the human FOXP3 tagged with 6 histidines at the C terminus of the protein. Briefly, plasmid pDEST15-FOXP3 (provided by Dr. Casal, Madrid, Spain) was used as template to amplify FOXP3 by PCR using the primers Upper FOXP3 Ndel catatgcccaaccccaggc (SEQ ID NO: 55) and Lower FOXP3 […] (SEQ ID NO: 56). The resulting fragment was subcloned in pET20b at Ndel and NotI sites. pET45b His-Runx1 was obtained by PCR of activated human CD4 T cells obtained from healthy volunteers (after the signature of an informed consent) using the primers Upper Runx1 atgcgtatccccgtagatg (SEQ ID NO: 57) and Lower Runx1 […] (SEQ ID NO: 58) and the fragment was cloned in pcDNA3.1. Then, pET45b and pcDNA3.1-Runx1 were digested with BamHI and NotI and ligated to obtain pET45b-Runx1. Plasmids were used to transform BL21 cells (DE3; Novagen, Schwalbach, Germany) for the expression of the recombinant protein. The transformed BL21 cells were grown in LB medium at 37° C. (1 liter of final culture medium) (with ampicilin 0.1 mg/ml). Once the OD of the culture was between 0.5 and 1.0, IPTG (0.4 mM, final concentration) was added. Bacteria were then cultured overnight in agitation and centrifuged for 10 min at 8000 rpm. Cell pellet was then resuspended in 4 ml Tris-HCl 0.1 M and frozen at −80° C. Cell pellet was then thawed and incubated with lisozyme (25 KU) and a protease inhibitor cocktail for 15 min at 30° C. before cell lysis induced with a French-press. The resultant pool was then centrifuged during 20 min at 11.000 rpm). The recombinant protein was purified from the soluble fraction of French-press cell extracts by affinity chromatography (Histrap, Pharmacia) following manufacturer's instructions and using an FPLC platform (AKTA, Pharmacia). Plasmid pDEST15-FOXP3 encoding the fusion protein GST-FOXP3 (GST fused to the isoform A from human FOXP3 gene), was transformed into BL21 cells for the expression of the recombinant protein. GST-FOXP3 protein was purified from the soluble fraction of cell extracts obtained, as described above, by affinity chromatography (GSTrap; Amersham, Piscataway, N.J.) using a fast protein liquid chromatography platform (AKTA; Amersham) following manufacturer's instructions. The eluted proteins were desalted using Hitrap desalting columns (Pharmacia) and analyzed by SDS-PAGE using Coomassie blue (Bio-Safe Coomassie reagent; Bio-Rad, Hercules, Calif.) and by Western blot.
Screening of peptide binding to FOXP3 was performed by surface plasmon resonance (SPR) using ProteOn XPR36 (Bio-Rad, Hercules Calif., USA) optical biosensor. Recombinant protein FOXP3-6His was produced and purified from E. coli as disclosed in previous section and was immobilized covalently onto a GLM sensor chip (176-5012, Bio-Rad) using sulfo-NHS and EDC (Bio-Rad) coupling reagents and the manufacturer's instructions. After protein immobilization, chip surface was treated with ethanolamine to deactivate the excess of reactive esters.
Individual solutions of the peptides to be tested (1-20 μM) were injected by triplicate in running buffer (Phosphate buffered saline, 0.005% (v/v) Tween 20, pH 7.4) at a flow of 30 μl/min. The interspot signal (obtained in the chip surface not immobilized with protein) was used as reference. The results are summarized in Table 6 below as the ratio Peptide of the invention/p60.

[2] = molecular target: T2, FOXP3/FOXP3 homodimerization (Homo sapiens, UniProt Q9BZS1); assay: FOXP3/FOXP3 homodimerization inhibition (Alphascreen); assay type: biochemical; details: for Dimerization inhibition % inhibition (100 μM): peptide 100 μM
T2 construct: made in house; host or cells: E. coli BL21 (DE3)
T2 sequence (Q9BZS1 1-431): T1 sequence (Q9BZS1 1-431)
Text: as §1
(§2) It has been described that dimerization of FOXP3 is required for its function as a transcriptional regulator. Moreover, interaction between FOXP3 and the transcription factor Runx1, is crucially required for normal hematopoiesis including thymic T-cell development, but also for Treg suppressor activity (Reviewed in Lozano et al, Front Oncol. 2013, 3:294). Both activities are mediated by the intermediate region of Foxp3, which is the area of interaction between P60 and Foxp3. Thus, we studied the effect of P60 and their mutants on the FOXP3/Runx1 heterodimerization, as well as FOXP3/FOXP3 homodimerization by Alphascreen technology according to the manufacturer's instructions (Perkin Elmer, Benelux). AlphaScreen™ is a bead-based technology that is designed to measure the proximity of donor and acceptor beads conjugated to biomolecules of interest.
To measure FOXP3/FOXP3 homodimerization, recombinant Foxp3 was expressed with a Histine tag as disclosed in section (1) above, and captured by Nickel chelate Acceptor beads (Cat. AL108 Perkin Elmer) following manufacturer's instructions. The other version of recombinant FOXP3, expressing a GST tag (prepared as disclosed in section (1) above), was captured by Glutathione Donor beads (Perkin Elmer Cat. 6765300), following manufacturer's instructions. When the two proteins interacted together, the Donor and Acceptor beads come into proximity. Excitation of the Donor beads results in emission of light from the Acceptor beads. […]

[3] = molecular target: T3, FOXP3/Runx1 heterodimerization (Homo sapiens, UniProt Q9BZS1); assay: FOXP3/Runx1 heterodimerization inhibition (Alphascreen); assay type: biochemical; details: for Foxp3-Runx1 Inhibition % inhibition (100 μM): peptide 100 μM
T3 construct: made in house; host or cells: E. coli BL21 (DE3)
T3 sequence (Q9BZS1 1-431): T1 sequence (Q9BZS1 1-431)
Text: as §1, §2
To measure Foxp3-Runx1 interactions, Foxp3-GST and […] proteins were used.
Recombinant Runx1 expressed in E. Coli with a hexa-histidine tag (obtained as disclosed in section (1) above) was captured by nickel chelate acceptor beads following manufacturer's instructions, whereas the recombinant FOXP3 expressed with a GST tag was captured by glutathione donor beads (Perkin Elmer) following manufacturer's instructions. His-tagged Runx1 (46 nM final concentration) was incubated with 100 nM GST-FOXP3 and the peptides to be tested (added at different concentrations from 1 to 100 μM) for 1 h at room temperature. […]

[4] = system: murine Treg (CD25+ T cells); assay: In vitro Treg suppression assay ([3H]-thymidine, anti-CD3); assay type: cell-based, BALB/c mice
Method: Spleen was harvested from BALB/c mice (Harlan Laboratories) and homogenized with a 1-ml syringe through a 100-μm cell strainer into a 50-ml conical tube and rinsed two times with PBS (Calcium free) to recover all cells. Cell homogenate was centrifuged at 300×g for 10 min and resuspended homogenate in 1 ml ACK Lysis buffer solution per spleen. Gently swirled for 2 min and then the reaction was quenched by adding 12 ml of PBS.
Cells were centrifuged at 300×g for 10 min and purification of CD25− and CD25+ cells was carried out using magnetic beads (Miltenyi, CD25 microbead kit MOUSE, Ref 130-091-072)), following manufacturer's instructions. After labelling the cells, they were purified using Automacs-Pro device following manufacturer's instructions. Negative fraction corresponded to CD25− cells, which was used as effector Tconv cells. Positive fraction corresponded to CD25+ T cells that was used as Treg cells. Flow cytometry using anti-CD25-APC labeled and anti-CD4-FITC labelled antibodies was used to confirm the purity of isolated cells. Foxp3 expression was analyzed using the anti-Foxp3 staining antibody labelled with APC according to manufacturer's instructions (eBioscience). Purified cells were washed, resuspended in culture medium and diluted in T-cell culture medium (RPMI 1640, supplemented with 10% Fetal bovine serum and antibiotics) at a concentration of 2×10^5/ml (for Tregs) and 2×10^6/ml (for Tconv), for the assay (See below)
The first in vitro assays to measure regulatory T-cell (Treg) function were described by two groups over a decade ago. […] With this knowledge, it was shown that CD4+CD25+ T cells could potently suppress the proliferation of activated CD4+CD25− and CD8+ T cells when the populations were cocultured in vitro. The following protocol describes a basic type of in vitro Treg suppression assay where Treg function is measured in the absence of antigen-presenting cells (APCs). In this protocol, activation is mediated by anti-CD3 antibodies and includes only two cell types, the target Tconv and Tregs. In this protocol, the experiment is setup in a 96-well round-bottom plate in a total volume of 200 μl. All reagents are prepared at four times their desired final concentration and added to assay in 50 μl such that the total volume is 200 μl, thus obtaining the desired final concentration of reactives. Purified Tregs and Tconv prepared as described above were diluted and adjusted in T-cell culture medium to 2×10^5/ml and 2×10^6/ml, respectively. In round-bottom 96-well plate, Tregs and Tconv were added in 50 μl of culture media each (RPMI 1640, supplemented with 10% Fetal bovine serum, and antibiotics). Anti-CD3 antibody was added in 50 μl (final concentration will be 2.5 μg/ml) as a stimulus to induce T cell proliferation. 50 μL of each one of the peptides to be tested were added in the corresponding wells at a concentration of 100 μM and those which provided the best results were tested again at lower concentrations to determine the IC50 value. The final volume was 200 μl in all wells. Tconv alone, Tconv plus anti-CD3, Tconv+anti-CD3+ Treg or Tconv+anti-CD3+Treg+peptides were tested by quadruplicate. Tconv plus anti-CD3 with no Treg was used to determine maximum proliferation of Tconv whereas Tconv+anti-CD3+ Treg was used to determine Treg inhibition. Plates were incubated at 37° C., 5% CO2 for 72 h and then pulsed with 0.1 μCi [^3H]-thymidine (in 25 μl of culture medium per well). After 8 h of incubation, cell cultures were harvested with a cell harvester (Perkin Elmer) and using unifilter plates. Plates were then dried at 50° C., and scintillation reagent (25 μl)(Microscint, Perkin Elmer) was added to each well. Counts per minute (cpm) were determined with a direct beta counter (TopCount, Perkin Elmer).
The results of in vitro Treg suppression assays are most commonly reported as cpm when [^3H]-thymidine is incorporated into proliferating cells. […]

[5] = system: CT26 tumor cells; assay: Anti-tumor vaccination experiment (AH1 in IFA), CT26 challenge; assay type: in vivo, BALB/c; details: 10 nanomol/mice i.p. daily during 10 days after AH1/IFA; day 30 after injection of CT26
Method: For anti-tumor vaccination experiments, BALB/c animals immunized with 50 nanomol/mice of peptide AH1 emulsified in incomplete Freund adjuvant (IFA) (Casares et al., 2010, supra), were treated intraperitoneally with 10 nanomol/mice of the indicated Treg inhibitory peptide SEQ ID NO: 51 of the invention or with saline daily during 10 days. At day 10, mice were injected s.c. with 10^6 CT26 tumor cells. Tumor size was monitored twice a week with a calliper and it was expressed according to the formula V=(length×width2)/2. Mice were sacrificed when tumor size reached a volume greater than 4 cm^3.

| Compound | Binding to Foxp3 Ratio binding Peptide/p60 (fold change) [1] [fold change] | Foxp3-Runx1 Inhibition % inhibition (100 μM) [3] [%] | Dimerization inhibition % inhibition (100 μM) [2] [%] | further results |
| --- | --- | --- | --- | --- |
| 9 (RWFQSFRKMWPFFAM) [compound 9] | 1.4 | – | – | Treg inhibition - % inhibition (100 μM) ([4]; peptide 100 μM): 210.0% |
| 30 (RDFQSFRKMWAFFAM) [compound 30] | 1.1 | 73.9 | 81.3 | – |
| CSCC[C@H](NC(=O)[C@H](C)NC(=O)[C@H](Cc1ccccc1)NC(=O)[C@H](Cc1ccccc1)NC(=O)[C@@H]1CCCN1C(=O)[C@H](Cc1c[nH]c2ccccc12)NC(=O)[C@H](CCSC)NC(=O)[C@H](CCCCN)NC(=O)[C@H](CCCNC(=N)N)NC(=O)[C@H](Cc1ccccc1)NC(=O)[C@H](CO)NC(=O)[C@H](CCC(N)=O)NC(=O)[C@H](Cc1ccccc1)NC(=O)[C@@H](C)NC(=O)[C@H](CCCNC(=N)N)NC(=O)CNC(C)=O)C(N)=O [compound 14] (Ac-GR[dA]FQSFRKMWPFFAM-NH2; C-terminus assumed) | 3.6 | – | – | inhibition at 2.5 µM ([3]; read-out: Foxp3-Runx1 Inhibition % inhibition (2.5 μM)): 80%; inhibition at 20 µM ([2]; read-out: Dimerization inhibition % inhibition (20 μM)): 90% |
| RAFQAFRKMWPFFAM (cyclo(R[dA]FQAFRKMWPFFAM); also: R1 and R2 form a birradical linker which is -C(=O)-) [SEQ ID NO: 51, head-to-tail cyclic peptide] | – | – | – | effect on growth of CT26 colon cancer tumor [5]: prevents the growth of tumor |

Further lines, with some results ahead:

| Binding to Foxp3 Ratio binding Peptide/p60 (fold change) [1] [fold change] | Foxp3-Runx1 Inhibition % inhibition (100 μM) [3] [%] | Dimerization inhibition % inhibition (100 μM) [2] [%] | Compound | further results |
| --- | --- | --- | --- | --- |
| 2.4 | – | – | 2 (RDFQSFRKMWPFFAM-NH2; not fully specified (N-terminus)) [compound 2] | Dimerization inhibition % inhibition (20 μM) ([2]; peptide 20 μM): 80 (20 μM) % |
| 4.1 | 76.0 | 74.3 | 5 (RAFQSFRKMWPFFAM) [compound 5] | – |
| 1.1 | 74.7 | 89.0 | 19 (RDFQAFRKMWPFFAM) [compound 19] | – |
| 8.0 | – | – | Ac-GRAFQAFRKMWAFFAM-NH2 (C-terminus assumed) [compound 45] | IC50 [4]: 3000 nM |
